This assay concerns the target human XLF/Cernunnos (1–233), tag-free (cleaved XLF441) (human, UniProt Q9H9Q4 1-233). Kind of assay: SPR. Background: In SPR one partner is held on a chip, and binding of the other changes the refractive index at the surface.

human XLF/Cernunnos (1–233), tag-free (cleaved XLF441), sequence (Q9H9Q4 1-233): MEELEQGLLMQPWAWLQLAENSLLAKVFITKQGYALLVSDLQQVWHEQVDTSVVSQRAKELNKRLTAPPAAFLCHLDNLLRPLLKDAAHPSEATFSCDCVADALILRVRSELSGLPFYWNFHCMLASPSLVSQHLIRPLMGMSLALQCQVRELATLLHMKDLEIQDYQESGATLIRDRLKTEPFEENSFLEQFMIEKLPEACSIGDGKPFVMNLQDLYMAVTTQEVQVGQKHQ

B1: XRCC4 (1–213) with N-terminal His6 tag (domain or fragment, UniProt Q13426 1-213, looked up)
chain: MERKISRIHLVSEPSITHFLQVSWEKTLESGFVITLTDGHSAWTGTVSESEISQEADDMAMEKGKYVGELRKALLSGAGPADVYTFNFSKESCYFFFEKNLKDVSFRLGSFNLEKVENPAEVIRELICYCLDTIAENQAKNEHLQKENERLLRDWNDVQGRFEKCVSAKEALETDLYKRFILVLNEKKTKIRSLHNKLLNAAQEREKDIKQEG
As a reminder, the Kd is the concentration at which binding is half-saturated. The low end stands for higher affinity, the high end for lower affinity. B1: the equilibrium dissociation constant (Kd) was 7.8 µM.

For the origin of these results see article PMC2104711 (The EMBO Journal, 2007).
